These results are taken from US20110071089A1.

Assay [1] addresses T1, human TRPV6b expressed in LnCaP cells (transfected with pCAGS-IRES-hTRPV6b) (human), Q9H1D0.
T1 chain: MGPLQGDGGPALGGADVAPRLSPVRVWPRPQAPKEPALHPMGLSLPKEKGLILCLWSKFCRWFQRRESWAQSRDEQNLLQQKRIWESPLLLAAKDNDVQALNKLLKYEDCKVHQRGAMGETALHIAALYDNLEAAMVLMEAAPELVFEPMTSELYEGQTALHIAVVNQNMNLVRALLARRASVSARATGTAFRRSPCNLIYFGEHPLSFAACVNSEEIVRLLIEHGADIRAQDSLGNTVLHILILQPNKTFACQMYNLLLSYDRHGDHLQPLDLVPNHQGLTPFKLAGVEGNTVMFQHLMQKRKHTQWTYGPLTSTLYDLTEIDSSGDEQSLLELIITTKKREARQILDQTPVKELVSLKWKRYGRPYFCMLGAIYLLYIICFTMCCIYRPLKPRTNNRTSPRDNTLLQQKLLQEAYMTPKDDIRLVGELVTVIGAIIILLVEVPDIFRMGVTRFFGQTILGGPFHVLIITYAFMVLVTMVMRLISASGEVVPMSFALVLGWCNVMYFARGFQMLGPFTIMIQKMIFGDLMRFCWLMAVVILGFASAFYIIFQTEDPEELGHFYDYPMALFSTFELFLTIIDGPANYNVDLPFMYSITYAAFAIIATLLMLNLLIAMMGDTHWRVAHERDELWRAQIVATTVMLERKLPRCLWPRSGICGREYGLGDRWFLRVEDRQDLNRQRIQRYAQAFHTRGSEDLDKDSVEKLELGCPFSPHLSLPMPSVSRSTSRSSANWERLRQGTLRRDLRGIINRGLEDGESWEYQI

The target of assay [2] is T1, human TRPV6b expressed in LnCaP cells …. The assay can be described thus: cell-based or functional assay.

What is called Kd is a measure of binding affinity in units of concentration.

B1: SorC27 (peptide)
peptide: EGKLSSNDTEGGLCKEFLHPSKVDLPR
modifications: not checked
B1 showed a Kd in assay [1] of 140 nM. Further, the inhibition constant of calcium current (whole-cell patch clamp) in assay [2] was 100 nM.

B2: SorC13 (peptide)
peptide: KEFLHPSKVDLPR
modifications: not checked
On to B2, for which the Kd in assay [1] was 100 nM. Further, in assay [2], the inhibition constant of calcium current (whole-cell patch clamp) is 100 nM.
